The source of these data is paper PMC2990340.

The experiment concerns the target T1, CsdE-myc-His6 (E. coli K12 MG1655), P0AGF2.
T1 chain: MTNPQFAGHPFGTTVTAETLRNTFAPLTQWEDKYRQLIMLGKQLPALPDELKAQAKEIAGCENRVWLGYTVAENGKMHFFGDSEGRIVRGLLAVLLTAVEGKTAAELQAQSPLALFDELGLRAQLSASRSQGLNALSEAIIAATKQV
Nature of the experiment: affinity purification with mass spectrometry. As to conditions: remark: other sources report otherwise.

B1: CsdE-myc-His6, P0AGF2 1-147 (natural protein)
chain: T1 chain
Consider B1, for which the stoichiometry N worked out at 2.

A word on the stoichiometry N: it is the number of molecules, sites or subunits per partner or assembly.
